From patent US20210163534A1 (KYUNGPOOK NATIONAL UNIVERSITY INDUSTRY ACADEMIC COOPERATION …, published 2021)
No end group written: not given here.

B1: PD-L1Pep-2 (peptide)
peptide: CVRARTR
modifications: also: N-terminal FITC, biotin or Flamma-675 depending on assay
notes: Synthetic peptide CVRARTR from a T7 phage library; also called PBP
B2: PD-L1Pep-1 (peptide)
peptide: CLQKTPKQC
modifications: cysteine pairing not given here; also: N-terminal FITC, biotin or Flamma-675 depending on assay
notes: also called PBP

Target: T1, PD-L1 expressed on MDA-MB231 cells (human, UniProt Q9NZQ7 19-290)
T1 construct: whole, on cells; Endogenous protein of a human cell line; also called MDA-MB 231 cells expressing PD-L1
T1 sequence (Q9NZQ7 19-290): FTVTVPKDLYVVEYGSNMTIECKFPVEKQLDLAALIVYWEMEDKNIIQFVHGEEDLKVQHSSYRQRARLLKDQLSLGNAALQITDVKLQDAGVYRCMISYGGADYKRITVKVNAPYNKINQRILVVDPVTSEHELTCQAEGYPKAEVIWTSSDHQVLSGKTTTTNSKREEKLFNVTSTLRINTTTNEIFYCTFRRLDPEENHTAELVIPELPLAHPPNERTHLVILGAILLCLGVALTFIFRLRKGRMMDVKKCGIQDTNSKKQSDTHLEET
Test: flow cytometry on MDA-MB231 cells after siRNA knockdown of PD-L1

Binder	binding result
B1	binds
B2	binds
